Data on eight variants can be found in IntAct's records for PubMed 35512704.

Sequences and labels used below:
B1: Speckle-type POZ protein (Homo sapiens), O43791 (parent)
chain: MSRVPSPPPPAEMSSGPVAESWCYTQIKVVKFSYMWTINNFSFCREEMGEVIKSSTFSSGANDKLKWCLRVNPKGLDEESKDYLSLYLLLVSCPKSEVRAKFKFSILNAKGEETKAMESQRAYRFVQGKDWGFKKFIRRDFLLDEANGLLPDDKLTLFCEVSVVQDSVNISGQNTMNMVKVPECRLADELGGLWENSRFTDCCLCVAGQEFQAHKAILAARSPVFSAMFEHEMEESKKNRVEINDVEPEVFKEMMCFIYTGKAPNLDKMADDLLAAADKYALERLKVMCEDALCSNLSVENAAEILILADLHSADQLKTQAVDFINYHASDVLETSGWKSMVVSHPHLVAEAYRSLASAQCPFLGPPRKRLKQS
partner: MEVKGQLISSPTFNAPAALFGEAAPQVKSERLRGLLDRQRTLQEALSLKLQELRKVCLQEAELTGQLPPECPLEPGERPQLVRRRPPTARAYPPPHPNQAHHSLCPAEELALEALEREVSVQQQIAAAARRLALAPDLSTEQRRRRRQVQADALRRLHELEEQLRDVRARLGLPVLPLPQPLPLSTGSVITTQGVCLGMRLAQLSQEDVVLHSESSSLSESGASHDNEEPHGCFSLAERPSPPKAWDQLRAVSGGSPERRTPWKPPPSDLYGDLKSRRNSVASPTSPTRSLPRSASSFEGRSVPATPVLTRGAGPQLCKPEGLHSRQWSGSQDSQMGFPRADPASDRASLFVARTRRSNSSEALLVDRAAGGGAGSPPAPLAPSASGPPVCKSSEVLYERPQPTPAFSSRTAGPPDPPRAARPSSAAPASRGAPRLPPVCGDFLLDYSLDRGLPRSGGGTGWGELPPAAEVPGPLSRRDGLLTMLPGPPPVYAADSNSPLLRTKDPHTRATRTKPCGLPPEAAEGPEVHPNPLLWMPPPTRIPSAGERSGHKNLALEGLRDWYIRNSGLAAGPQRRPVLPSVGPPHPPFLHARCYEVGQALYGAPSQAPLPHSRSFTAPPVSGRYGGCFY
B2: Speckle-type POZ protein (Homo sapiens), O43791 (parent)
chain: B1 chain
partner: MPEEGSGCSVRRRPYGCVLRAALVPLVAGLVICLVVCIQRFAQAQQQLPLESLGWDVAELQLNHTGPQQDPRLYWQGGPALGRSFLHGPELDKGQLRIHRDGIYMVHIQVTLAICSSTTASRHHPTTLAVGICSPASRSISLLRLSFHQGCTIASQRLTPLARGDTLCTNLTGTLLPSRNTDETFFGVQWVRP

The variants in the first test derive from B1. The settings on record: with cc120_human CCDC120, Q96HB5.
Consider MSRVPSPPPPAEMSSGPVAESWCYTQIKVVKFSYMWTINNFSFCREEMGEVIKSSTFSSGANDKLKWCLRVNPKGLDEESKDYLSLCLLLVSCPKSEVRAKFKFSILNAKGEETKAMESQRAYRFVQGKDWGFKKFIRRDFLLDEANGLLPDDKLTLFCEVSVVQDSVNISGQNTMNMVKVPECRLADELGGLWENSRFTDCCLCVAGQEFQAHKAILAARSPVFSAMFEHEMEESKKNRVEINDVEPEVFKEMMCFIYTGKAPNLDKMADDLLAAADKYALERLKVMCEDALCSNLSVENAAEILILADLHSADQLKTQAVDFINYHASDVLETSGWKSMVVSHPHLVAEAYRSLASAQCPFLGPPRKRLKQS [Y87C], for which the “effect of a mutation on the interaction” value is “with no effect”.

In the next test the parent is B1. As to conditions: with cc120_human CCDC120, Q96HB5. This is another data set of the same source.
Regarding MSRVPSPPPPAEMSSGPVAESWCYTQIKVVKFSYMWTINNFSFCREEMGEVIKSSTFSSGANDKLKWCLRVNPKGLDEESKDYLSLYLLLVSCPKSEVRAKCKFSILNAKGEETKAMESQRAYRFVQGKDWGFKKFIRRDFLLDEANGLLPDDKLTLFCEVSVVQDSVNISGQNTMNMVKVPECRLADELGGLWENSRFTDCCLCVAGQEFQAHKAILAARSPVFSAMFEHEMEESKKNRVEINDVEPEVFKEMMCFIYTGKAPNLDKMADDLLAAADKYALERLKVMCEDALCSNLSVENAAEILILADLHSADQLKTQAVDFINYHASDVLETSGWKSMVVSHPHLVAEAYRSLASAQCPFLGPPRKRLKQS [F102C], the “effect of a mutation on the interaction” value was “with no effect”.

Variants of B1 are the subject of the next test. The settings on record: with cc120_human CCDC120, Q96HB5. The source holds these as a separate data set.
With MSRVPSPPPPAEMSSGPVAESWCYTQIKVVKFSYMWTINNFSFCREEMGEVIKSSTFSSGANDKLKWCLRVNPKGLDEESKDYLSLYLLLVSCPKSEVRAKFKFSILNAKGEETKAMESQRAYRFVQGKDWGVKKFIRRDFLLDEANGLLPDDKLTLFCEVSVVQDSVNISGQNTMNMVKVPECRLADELGGLWENSRFTDCCLCVAGQEFQAHKAILAARSPVFSAMFEHEMEESKKNRVEINDVEPEVFKEMMCFIYTGKAPNLDKMADDLLAAADKYALERLKVMCEDALCSNLSVENAAEILILADLHSADQLKTQAVDFINYHASDVLETSGWKSMVVSHPHLVAEAYRSLASAQCPFLGPPRKRLKQS [F133V], the “effect of a mutation on the interaction” value is “with no effect”.

The next test covers variants of B1. As to conditions: with cc120_human CCDC120, Q96HB5. The source holds these as a separate data set.
For the variant MSRVPSPPPPAEMSSGPVAESWCYTQIKVVKFSYMWTINNFSFCREEMGEVIKSSTFSSGANDKLKWCLRVNPKGLDEESKDYLSLYLLLVSCPKSEVRAKFKFSILNAKGEETKAMESQRAYRFVQGKDWGLKKFIRRDFLLDEANGLLPDDKLTLFCEVSVVQDSVNISGQNTMNMVKVPECRLADELGGLWENSRFTDCCLCVAGQEFQAHKAILAARSPVFSAMFEHEMEESKKNRVEINDVEPEVFKEMMCFIYTGKAPNLDKMADDLLAAADKYALERLKVMCEDALCSNLSVENAAEILILADLHSADQLKTQAVDFINYHASDVLETSGWKSMVVSHPHLVAEAYRSLASAQCPFLGPPRKRLKQS [F133L], the “effect of a mutation on the interaction” value is listed as “with no effect”.

Another test covers variants of B2. As to conditions: with cd70_human CD70, P32970.
Consider MSRVPSPPPPAEMSSGPVAESWCYTQIKVVKFSYMWTINNFSFCREEMGEVIKSSTFSSGANDKLKWCLRVNPKGLDEESKDYLSLCLLLVSCPKSEVRAKFKFSILNAKGEETKAMESQRAYRFVQGKDWGFKKFIRRDFLLDEANGLLPDDKLTLFCEVSVVQDSVNISGQNTMNMVKVPECRLADELGGLWENSRFTDCCLCVAGQEFQAHKAILAARSPVFSAMFEHEMEESKKNRVEINDVEPEVFKEMMCFIYTGKAPNLDKMADDLLAAADKYALERLKVMCEDALCSNLSVENAAEILILADLHSADQLKTQAVDFINYHASDVLETSGWKSMVVSHPHLVAEAYRSLASAQCPFLGPPRKRLKQS [Y87C], for which the “effect of a mutation on the interaction” value is on record as “with no effect”.

Another test covers variants of B2. As to conditions: with cd70_human CD70, P32970. The source holds these as a separate data set.
Consider MSRVPSPPPPAEMSSGPVAESWCYTQIKVVKFSYMWTINNFSFCREEMGEVIKSSTFSSGANDKLKWCLRVNPKGLDEESKDYLSLYLLLVSCPKSEVRAKCKFSILNAKGEETKAMESQRAYRFVQGKDWGFKKFIRRDFLLDEANGLLPDDKLTLFCEVSVVQDSVNISGQNTMNMVKVPECRLADELGGLWENSRFTDCCLCVAGQEFQAHKAILAARSPVFSAMFEHEMEESKKNRVEINDVEPEVFKEMMCFIYTGKAPNLDKMADDLLAAADKYALERLKVMCEDALCSNLSVENAAEILILADLHSADQLKTQAVDFINYHASDVLETSGWKSMVVSHPHLVAEAYRSLASAQCPFLGPPRKRLKQS [F102C], for which the “effect of a mutation on the interaction” value is on record as “with no effect”.

Variants of B2 are the subject of a further test. As to conditions: with cd70_human CD70, P32970. This is another data set of the same source.
As to MSRVPSPPPPAEMSSGPVAESWCYTQIKVVKFSYMWTINNFSFCREEMGEVIKSSTFSSGANDKLKWCLRVNPKGLDEESKDYLSLYLLLVSCPKSEVRAKFKFSILNAKGEETKAMESQRAYRFVQGKDWGLKKFIRRDFLLDEANGLLPDDKLTLFCEVSVVQDSVNISGQNTMNMVKVPECRLADELGGLWENSRFTDCCLCVAGQEFQAHKAILAARSPVFSAMFEHEMEESKKNRVEINDVEPEVFKEMMCFIYTGKAPNLDKMADDLLAAADKYALERLKVMCEDALCSNLSVENAAEILILADLHSADQLKTQAVDFINYHASDVLETSGWKSMVVSHPHLVAEAYRSLASAQCPFLGPPRKRLKQS [F133L], the “effect of a mutation on the interaction” value is “with no effect”.

In the next test the parent is B2. As to conditions: with cd70_human CD70, P32970. This is another data set of the same source.
MSRVPSPPPPAEMSSGPVAESWCYTQIKVVKFSYMWTINNFSFCREEMGEVIKSSTFSSGANDKLKWCLRVNPKGLDEESKDYLSLYLLLVSCPKSEVRAKFKFSILNAKGEETKAMESQRAYRFVQGKDWGVKKFIRRDFLLDEANGLLPDDKLTLFCEVSVVQDSVNISGQNTMNMVKVPECRLADELGGLWENSRFTDCCLCVAGQEFQAHKAILAARSPVFSAMFEHEMEESKKNRVEINDVEPEVFKEMMCFIYTGKAPNLDKMADDLLAAADKYALERLKVMCEDALCSNLSVENAAEILILADLHSADQLKTQAVDFINYHASDVLETSGWKSMVVSHPHLVAEAYRSLASAQCPFLGPPRKRLKQS [F133V]: the “effect of a mutation on the interaction” value is listed as “with no effect”.
